B1: TPR t1 (parent)
chain: GACCAAUCUGCCCUCAGAGCUCGAGAACAUCUUCGGAUGCAGAGGAGGCAGGCUUCGGUGGCGCGAUAGCGCCAACGUCCUCAACCUCCAAUGCAUCCCACCACAUGAUGAUGCCUGAAGAGCCUUGGUUUUUUG

Variants of: B1
Assay: polymerase ribozyme fitness, log enrichment relative to wild type (log ratio); higher = more active; in vitro selection for triplet polymerase activity
How it was run: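 Fitness is a logarithmic measure of how a genotype enriched relative to the wild type, with replicate averages weighted by inverse variance. The logarithm uses base 2, and enrichment came from Illumina sequencing of input and output libraries. Those libraries were PCR-built, transcribed mutants of each subunit of a heterodimeric triplet polymerase ribozyme, passed through one triplicate in vitro selection round that included frozen incubation at −7 °C, gel excision of extended constructs and streptavidin-bead capture. Genotypes were kept only if they had ≥10 input reads and ≥1 read per output.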

| Variant | polymerase ribozyme fitness (log ratio) |
| --- | --- |
| GACCAAUCUGCCCUCAGAGCUCGAGAACAUCUUCGGAUGCAGAGGAGGCAGGCUUUGGUGGGGCGAUAGCGCCAACGUCCUCAACCUCCAAUGCAUCCCACCACAUGAUGAGGCCUGAAGAGCCUUGGUUUUUUG [C56U C62G U112G] | -5.4 |
| GACCAAUCUGCCCUCAGAGCUCGAGAACAUCUUCGGAUGCAGAGGAGGCAGGCUUUGGUGGCGCGAUAGCGCCAACGUCCUCAACCUCCGAUGCAUCCCACCACAUGAUGAUGCCUGAAGAGCCUUGGUUUAUUG [C56U A90G U132A] | 0.308 |
| GACCAAUCUGCCCUCAGAGCUCGAGAACAUCUUCGGAUGCAGAGGAGGCAGGCUUUGGUGGCGCGAUAGCGCCAACGUCCUCAACCUCCGAUGCAUCCCACCACAUGAUGAUGCCUGAAGAGCCAUGGUUUUUUG [C56U A90G U125A] | -0.318 |
| GACCAAUCUGCCCUCAGAGCUCGAGAACAUCUUCGGAUGCAGAGGAGGCAGGCUUUGGUGGCGCGAUAGCGCCAACGUCCUCAACCUCCAAUGCAUCCCACCACAUGAUGUUGCCUGAAGAGCCUUGGUUUUUUG [C56U A111U] | -1.9 |
| GACCAAUCUGCCCUCAGAGCUCGAGAACAUCUUCGGAUGCAGAGGAGGCAGGCUUUGGUGGCGUGAUAGCGCCAACGUCCUCAACCUCCAAUGCAUCCCACCACAUGAUGAUGCCUGAAGAGCCUUGGUUUUUUG [C56U C64U] | -1.54 |
| GACCAAUCUGCCCUCAGAGCUCGAGAACAUCUUCGGAUGCAGAGGAGGCAGGCUUUGGUGGCGCGAUAGCGCCAAAGUCCUCAACCUCCAAUGCAUCCCACCACAUGAUGAUGCCUGAAGAGCCUUGGUUUUUUG [C56U C76A] | -2.9 |
| GACCAAUCUGCCCUCAGAGCUCGAGAACAUCUUCGGAUGCAGAGGAGGCAGGCUUUGGUGGCGCGAUAGCGCCAACGUCCUCAACCUCCCAUGCAUCCCACCACAUGAUAGUGCCUGAAGAGCCUUGGUUUAUUG [C56U A90C G110A A111G U132A] | -0.678 |
| GACCAAUCUGCCCUCAGAGCUCGAGAACAUCUUCGGAUGCAGAGGAGGCAGGCUUUGGUGGCGCGAUAGCGACAACGUCCUCAACCUCCAAUGCAUCCCACCACAUGAUGAUGCCUGAAGAGCCUUGGUUUUUUG [C56U C72A] | -0.0735 |
| GACCAAUCUGCCCUCAGAGCUCGAGAACAUCUUCGGAUGCAGAGGAGGCAGGCUUUGGUGGCGCGAUAGCGUCAACGUCCUCAACCUCCAAUGCAUCCCACCACAUGAUGAUGCCUGAAGAGCCUUGGUUUUUUG [C56U C72U] | -0.11 |
| GACCAAUCUGCCCUCAGAGCUCGAGAACAUCUUCGGAUGCAGAGGAGGCAGGCUUUGGUGGCGCGAUAGAGCCAACGUCCUCAACCUCCAAUGCAUCCCACCACAUGAUGAUGCAUGAAGAACCUUGGUUUUUUG [C56U C70A C115A G122A] | -3.13 |
| GACCAAUCUGCCCUCAGAGCUCGAGAACAUCUUCGGAUGCAGAGGAGGCAGGCUUGGGUGGCGCGAUAGCGCCAACGUCCUCAACCUCCAAUGCAUCCCACCACAUGAUGAUGCCUGAAGAGCCUUGGCUUUUUG [C56G U129C] | -0.877 |
| GACCAAUCUGCCCUCAGAGCUCGAGAACAUCUUCGGAUGCAGAGGAGGCAGGCUUUGGUGGCGCGAUAGCGCCAACGUCCUCAACCUCCAAUGCAUCCCACCACAUGAUGAUGACUGAAGAGCCUUGAUUUUGUG [C56U C114A G128A U133G] | -4.81 |
| GACCAAUCUGCCCUCAGAGCUCGAGAACAUCUUCGGAUGCAGAGGAGGCAGGCUUUGGUGGCGCGAUAGCGCCAACGUCUUCAACCUCCAAUGCAUCCCAUCACAUGAUGAUGCCUGAAGCGCCUUGGUUUUUUG [C56U C80U C101U A121C] | 0.686 |
| GACCAAUCUGCCCUCAGAGCUCGAGAACAUCUUCGGAUGCAGAGGAGGCAGGCUUUGGUGGCGCGAUAGCGCCAACGUCAUCAACCUCCAAUGCAUCCCACCACAUGAUGAUGUCUGAAGAGCCUUGGUUUUUUG [C56U C80A C114U] | -4.51 |
| GACCAAUCUGCCCUCAGAGCUCGAGAACAUCUUCGGAUGCAGAGGAGGCAGGCUUUGGUGGCGCGAUAGCGCCAACGUCCUGAACCUCCAAUGCAUCCCACCACAUGAUGAUGCCUGAAGAGCCUUGGUCUUUUG [C56U C82G U130C] | -0.672 |
| GACCAAUCUGCCCUCAGAGCUCGAGAACAUCUUCGGAUGCAGAGGAGGCAGGCUUGGGUGGCGCGAUAGCGCCAACGUCCUCAACCUCCAAUGCAUCCCACCACAUGAUGAUGCCUGAAGAGCCAUGGUUUUUUG [C56G U125A] | -1.54 |
| GACCAAUCUGCCCUCAGAGCUCGAGAACAUCUUCGGAUGCAGAGGAGGCAGGCUUUGGUGGCGCGAUAGCGCCAACGUCCUCAACCUCCAAUGCAUCCCACCAUAUGAUGAUGCCUGAAGAGCCUUGGUUUUUUG [C56U C104U] | 0.166 |
| GACCAAUCUGCCCUCAGAGCUCGAGAACAUCUUCGGAUGCAGAGGAGGCAGGCUUUGGUGGCGCGAUAGCGCCAACGUCCUCAACCUCCAAUGCAUCCCAGCACAUGAUGAUGCCUGAAGAGCCUUGGUUUUUUG [C56U C101G] | -2.07 |
| GACCAAUCUGCCCUCAGAGCUCGAGAACAUCUUCGGAUGCAGAGGAGGCAGGCUUUGGUGGCGCGAUAGCGCCAUCGUCCUCAACUUCCAAUGCAUCCCACCACAUGAUGAUGCCUGAAGAGCCUUGGUUUUUUG [C56U A75U C86U] | -0.18 |
| GACCAAUCUGCCCUCAGAGCUCGAGAACAUCUUCGGAUGCAGAGGAGGCAGGCUUUGGUGGCGCGAUAGCGCCAACGUCCUCAACUUCCAAUGCAUCCCACCACAUGAUGAUGCCUAAAGAGCCUUGGUUUUUUG [C56U C86U G117A] | -1.37 |
| GACCAAUCUGCCCUCAGAGCUCGAGAACAUCUUCGGAUGCAGAGGAGGCAGGCUUGGGUGGCGCGAUAGCGCCAACGUCCUCAACCACCAAUGCAUCCCACCACAUGAUGAUGCCUGAAAAGCCUUGGUUUUUUG [C56G U87A G120A] | -0.872 |

— the RNAGym collection of RNA variant scans (doi:10.1073/pnas.2313332121)
